Results from publication PMC2929395.
Positions count from the first letter of the chain named. Names and notes keep the numbering of the source.

B1: PanK3(S195V) (Homo sapiens; S195V) (protein)
chain: MKIKDAKKPSFPWFGMDIGGTLVKLSYFEPIDITAEEEQEEVESLKSIRKYLTSNVAYGSTGIRDVHLELKDLTLFGRRGNLHFIRFPTQDLPTFIQMGRDKNFSTLQTVLCATGGGAYKFEKDFRTIGNLHLHKLDELDCLVKGLLYIDSVSFNGQAECYYFANASEPERCQKMPFNLDDPYPLLVVNIGSGVVILAVHSKDNYKRVTGTSLGGGTFLGLCSLLTGCESFEEALEMASKGDSTQADKLVRDIYGGDYERFGLPGWAVASSFGNMIYKEKRESVSKEDLARATLVTITNNIGSVARMCAVNEKINRVVFVGNFLRVNTLSMKLLAYALDYWSKGQLKALFLEHEGYFGAVGALLGLPNFS
B2: PanK3 (Homo sapiens) (protein)
chain: B1 chain with V195S

Substrate: CC(C)(CO)[C@@H](O)C(=O)NCCC(=O)O
Assay: purified protein, by the assay type
Conditions: pH 7.5, 37.0 °C

Row | Protein | Km (other: substrate) | Km (other: wild-type PanK3, substrate)
1 | B1 | 151 ± 16 µM | –
2 | B2 | – | 14 ± 0.1 µM
